Substitutions are numbered along the chain they refer to.
T1: Ala mutant of TA0096, SEQ ID NO: 40
T1 peptide: EENMDDQWMQDEMAIGY

T2: Ala mutant of TA0096, SEQ ID NO: 43
T2 peptide: EENMDDQWMQDEMEIGA

T3: Ala mutant of TA0096, SEQ ID NO: 34
T3 peptide: EENMDDQAMQDEMEIGY

T4: Ala mutant having 3-amino acid substitution, SEQ ID NO: 46
T4 peptide: EENMDDAAAQDEMEIGY

T5: Ala mutant having 3-amino acid substitution, SEQ ID NO: 44
T5 peptide: AAAMDDQWMQDEMEIGY

T6: Ala mutant of TA0096, SEQ ID NO: 37
T6 peptide: EENMDDQWMQAEMEIGY

T7: Ala mutant of TA0096, SEQ ID NO: 38
T7 peptide: EENMDDQWMQDAMEIGY

T8: Ala mutant of TA0096, SEQ ID NO: 35
T8 peptide: EENMDDQWAQDEMEIGY

T9: Ala mutant of TA0096, SEQ ID NO: 32
T9 peptide: EENMDAQWMQDEMEIGY

B1: A11 (antibody, V domains shown)
VH: AVTLDESGGGLQTPGGALSLVCKASGFDFSSYGMGWMRQAPGKGLEYVAAIRNDGSWTGYGAAVKGHATISRDNGQSTVRLQLNNLRAEDTGTYYCAKTTGSRGGSIDAWGHGTEVIVS
VL: ASTQPSSVSANLGGTVEITCSGGGRYYYGWYQQKSPGSAPVTVIYANDKRPSDIPSRFSGSKSGSTGTLTITGVQAEDEAVYFCGSAETSSYVFGAGTTLTVL
notes: Chicken variable regions in a mouse chimeric antibody (IgG1); also called anti-PAD4 antibody A11
B2: G8 (antibody, V domains shown)
VH: B1 VH with D28T, S31T, G33A, H67R, S71L, N84S, T99Y, R103S, D108G
VL: ASTQPSSVSANLGGTVEITCSGGNRNYYYGWYQQKSPGSAPVTLIYANDKRPSNIPSRFSGSKSGSTGTLTITGVQAEDEAVYFCGTADTGKYVFGAGTTLTVL
notes: Chicken variable regions in a mouse chimeric antibody (IgG1); also called anti-PAD4 antibody G8
B3: H7 (antibody, V domains shown)
VH: B1 VH with D28T, S31T, G33A, H67R, S71L, N84S, T99Y, R103S, D108G
VL: ASTQPSSVSANPGGTVEITCSGGSGRYYYGWYQQKSPGSAPVTVIYSSTHRPSNIPSRFSGSKSGSTATLTITGVQAEDEAVYFCGTADSSSYVFGAGTTLTVL
notes: Chicken variable regions in a mouse chimeric antibody (IgG1); also called anti-PAD4 antibody H7
B4: G6 (antibody, V domains shown)
VH: B1 VH with D28T, G35E, M37V, H67R, N74D, V79L, G92A, R103S
VL: B1 VL with G14E, E17K, R25N, V43L, D53N, S86T, E88D, S90G, S91K
notes: Chicken variable regions in a mouse chimeric antibody (IgG1); also called anti-PAD4 antibody G6
B5: G9 (antibody, V domains shown)
VH: B1 VH with D28T, S31T, G33A, H67R, S71L, N84S, T99Y, R103S, D108G
VL: B1 VL with S2V, S6A
notes: Chicken variable regions in a mouse chimeric antibody (IgG1); also called anti-PAD4 antibody G9
B6: E9 (antibody, V domains shown)
VH: B1 VH with A17T, A24G, D28T, A62S, H67R, G92A, T100S, R103S, I107V
VL: B1 VL
notes: Chicken variable regions in a mouse chimeric antibody (IgG1); also called anti-PAD4 antibody E9

Assays:
[1] = molecular target: T10, full-length recombinant human PAD4 (human, UniProt Q9UM07 1-663); assay: ELISA, coated human PAD4; antibody 0.25 ug/mL
T10 construct: Full-length recombinant; also called peptidylarginine deiminase 4

[2] = molecular target: T11, full-length recombinant mouse PAD4 (mouse, UniProt Q9Z183 1-666); assay: ELISA, coated mouse PAD4; antibody 0.0009766 ug/mL
T11 construct: mature; Full-length recombinant

[3] = molecular target: T1, Ala mutant of TA0096, SEQ ID NO: 40; assay: ELISA, coated peptide
[4] = molecular target: T2, Ala mutant of TA0096, SEQ ID NO: 43; assay: ELISA, coated peptide
[5] = molecular target: T3, Ala mutant of TA0096, SEQ ID NO: 34; assay: ELISA, coated peptide
[6] = molecular target: T4, Ala mutant having 3-amino acid …; assay: ELISA, coated peptide
[7] = molecular target: T5, Ala mutant having 3-amino acid …; assay: ELISA, coated peptide
[8] = molecular target: T6, Ala mutant of TA0096, SEQ ID NO: 37; assay: ELISA, coated peptide
[9] = molecular target: T7, Ala mutant of TA0096, SEQ ID NO: 38; assay: ELISA, coated peptide
[10] = molecular target: T10, full-length recombinant human PAD4; assay: ELISA, coated human PAD4; antibody 0.015625 ug/mL
[11] = molecular target: T10, full-length recombinant human PAD4; assay: ELISA, coated human PAD4; antibody 1 ug/mL
[12] = molecular target: T11, full-length recombinant mouse PAD4; assay: ELISA, coated mouse PAD4; antibody 1 ug/mL
[13] = molecular target: T11, full-length recombinant mouse PAD4; assay: ELISA, coated mouse PAD4; antibody 0.25 ug/mL
[14] = molecular target: T11, full-length recombinant mouse PAD4; assay: ELISA, coated mouse PAD4; antibody 0.0625 ug/mL
[15] = molecular target: T8, Ala mutant of TA0096, SEQ ID NO: 35; assay: ELISA, alanine scan (position 348)
Description: (§1) The epitope of each of A11 etc. was identified by alanine scan. Specifically, the following procedures (i) to (iii) were carried out. (i) Each amino acid residue of the antigen sequence (SEQ ID NO: 1) was replaced by another amino acid one by one, and 17 different Ala mutants (SEQ ID Nos: 27 to 43) were synthesized. (ii) The reactivity of each of the Ala mutants toward a test antibody was evaluated (ELISA).
(§2) The “96 pAb” designated in the table refers to antiserum as obtained by immunizing a chicken with TA0096 (SEQ ID NO: 1). The 96 pAb, which is an anti-PAD4 polyclonal antibody, can substantially keep the affinity toward PAD4 even if any of single amino acids of PAD4 is replaced.

[16] = molecular target: T11, full-length recombinant mouse PAD4; assay: ELISA, coated mouse PAD4; antibody 0.015625 ug/mL
[17] = molecular target: T11, full-length recombinant mouse PAD4; assay: ELISA, coated mouse PAD4; antibody 0.0002441 ug/mL
[18] = molecular target: T10, full-length recombinant human PAD4; assay: ELISA, coated human PAD4; antibody 6.104E-05 ug/mL
[19] = molecular target: T4, Ala mutant having 3-amino acid …; assay: ELISA, 3-amino acid Ala mutants
Description: as §1
Note that, as additional experiments, 6 different Ala mutants having 3-amino acid substitution (SEQ ID NOs: 44 to 49) were likewise examined in the experiments.

[20] = molecular target: T9, Ala mutant of TA0096, SEQ ID NO: 32; assay: ELISA, alanine scan (position 345)
Description: as §1, §2

[21] = molecular target: T9, Ala mutant of TA0096, SEQ ID NO: 32; assay: ELISA, coated peptide

T10 sequence (Q9UM07 whole entry): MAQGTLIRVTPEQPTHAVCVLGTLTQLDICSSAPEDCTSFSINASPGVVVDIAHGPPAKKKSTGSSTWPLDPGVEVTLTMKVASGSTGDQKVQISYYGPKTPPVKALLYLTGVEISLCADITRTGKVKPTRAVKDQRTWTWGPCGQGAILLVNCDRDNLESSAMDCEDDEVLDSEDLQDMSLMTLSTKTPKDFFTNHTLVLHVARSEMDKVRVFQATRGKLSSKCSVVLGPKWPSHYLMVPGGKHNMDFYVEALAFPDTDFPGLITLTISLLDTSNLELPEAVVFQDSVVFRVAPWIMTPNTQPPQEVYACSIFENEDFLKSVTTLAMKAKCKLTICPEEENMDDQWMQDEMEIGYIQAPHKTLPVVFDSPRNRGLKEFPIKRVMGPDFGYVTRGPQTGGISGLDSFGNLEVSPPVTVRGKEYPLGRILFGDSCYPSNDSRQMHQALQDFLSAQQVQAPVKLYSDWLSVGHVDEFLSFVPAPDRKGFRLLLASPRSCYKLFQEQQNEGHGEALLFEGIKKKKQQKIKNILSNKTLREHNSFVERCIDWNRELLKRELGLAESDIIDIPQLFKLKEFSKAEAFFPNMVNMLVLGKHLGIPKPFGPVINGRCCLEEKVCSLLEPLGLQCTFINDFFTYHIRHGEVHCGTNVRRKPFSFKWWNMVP
T11 sequence (Q9Z183 whole entry): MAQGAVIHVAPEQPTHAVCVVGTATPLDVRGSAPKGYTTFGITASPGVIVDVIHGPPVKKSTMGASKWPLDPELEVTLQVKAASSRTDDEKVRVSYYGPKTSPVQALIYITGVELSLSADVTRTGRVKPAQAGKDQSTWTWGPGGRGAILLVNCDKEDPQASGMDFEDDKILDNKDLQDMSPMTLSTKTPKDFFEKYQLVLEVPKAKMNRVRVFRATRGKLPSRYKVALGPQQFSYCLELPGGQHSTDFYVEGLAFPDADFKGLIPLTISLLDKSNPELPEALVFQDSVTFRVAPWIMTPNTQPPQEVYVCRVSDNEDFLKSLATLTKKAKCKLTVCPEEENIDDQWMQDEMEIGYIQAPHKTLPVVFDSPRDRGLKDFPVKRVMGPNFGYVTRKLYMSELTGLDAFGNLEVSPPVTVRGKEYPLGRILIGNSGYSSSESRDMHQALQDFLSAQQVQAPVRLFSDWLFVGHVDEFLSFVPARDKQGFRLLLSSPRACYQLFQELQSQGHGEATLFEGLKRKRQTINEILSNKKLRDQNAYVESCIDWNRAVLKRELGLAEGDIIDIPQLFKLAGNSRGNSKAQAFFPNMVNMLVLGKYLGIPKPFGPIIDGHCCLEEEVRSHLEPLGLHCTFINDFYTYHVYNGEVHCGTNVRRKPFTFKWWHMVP

Binder	OD 490/630 nm [1]	OD 490/630 nm [2]	OD 490/630 nm [3]	OD 490/630 nm [4]	OD 490/630 nm [5]	OD 490/630 nm [6]	OD 490/630 nm [7]	OD 490/630 nm [8]	OD 490/630 nm [9]	OD 490/630 nm [10]	OD 490/630 nm [11]	OD 490/630 nm [12]	OD 490/630 nm [13]	OD 490/630 nm [14]	binding result [15]	OD 490/630 nm [16]	OD 490/630 nm [17]	OD 490/630 nm [18]	binding result [19]	binding result [20]	other results
B1	2.11	0.386	1.85	1.92	0.021	0.043	1.98	1.8	1.89	2.08	2.15	2.24	2.25	2.24	no binding	2.02	0.152	0.063	no binding	–	–
B2	2.1	0.555	1.89	1.92	0.04	–	1.9	1.88	1.91	2.08	2.12	2.26	2.25	2.22	–	2.25	0.205	0.1	–	no binding	OD 490/630 nm [21]: 0.083
B3	2.11	0.55	1.86	1.87	0.066	0.044	1.9	1.86	1.99	2.07	2.11	2.3	2.31	2.29	no binding	2.26	0.224	0.111	no binding	no binding	OD 490/630 nm [21]: 0.033
B4	2.07	0.2	1.86	1.87	0.042	0.083	1.92	1.85	1.92	2.01	2.11	2.27	2.27	2.16	no binding	1.35	0.071	0.075	no binding	no binding	OD 490/630 nm [21]: 0.035
B5	2.08	0.542	1.88	1.88	0.038	0.131	1.92	1.88	1.96	2.07	2.1	2.3	2.25	2.24	–	2.21	0.181	0.082	no binding	no binding	OD 490/630 nm [21]: 0.039
B6	2.08	0.416	1.82	1.88	0.047	0.027	1.9	1.2	1.91	2.08	2.11	2.23	2.23	2.19	no binding	1.86	0.122	0.07	no binding	–	–

— patent publication US20180044434A1 (PUBLIC UNIVERSITY CORPORATION YOKOHAMA CITY UNIVERSITY, published 2018)
